Data published in paper PMC3669411, “Characterization of Flavin-Based Fluorescent Proteins: An Emerging Class of Fluorescent Reporters” (PLoS ONE, 2013).

Experiments:
[1] = target: EcFbFP, FMN-based fluorescent protein derived from the N-terminal LOV domain of Bacillus subtilis YTVA (E. coli codon-optimized gene) (Bacillus subtilis) (UniProt O34627); experiment: SEC; Superdex 200 gel filtration on AKTA FPLC, calibrated with globular protein standards; 0.5 M NaCl; oligomeric state = estimated mass divided by calculated monomer mass (110 Da per amino acid); mean of duplicates
[2] = target: EcFbFP, FMN-based fluorescent protein derived from the N-terminal LOV domain of Bacillus subtilis YTVA (E. coli codon-optimized gene) (Bacillus subtilis) (UniProt O34627); experiment: SEC; Superdex 200 gel filtration on AKTA FPLC, calibrated with globular protein standards; 0.15 M NaCl (methods name phosphate buffered saline); oligomeric state = estimated mass divided by calculated monomer mass (110 Da per amino acid); mean of duplicates
[3] = target: EcFbFP, FMN-based fluorescent protein derived from the N-terminal LOV domain of Bacillus subtilis YTVA (E. coli codon-optimized gene) (Bacillus subtilis) (UniProt O34627); experiment: SEC; Superdex 200 gel filtration on AKTA FPLC, calibrated with globular protein standards; 1 M NaCl (20 mM Tris hydrochloride, 1 M NaCl, pH 8.0); oligomeric state = estimated mass divided by calculated monomer mass (110 Da per amino acid); mean of duplicates
[4] = target: T1, iLOV (Arabidopsis thaliana, UniProt P93025, S394T/S409G/C426A/I452T/F470L/M475V); experiment: absorbance at […] nm vs Bradford total protein, as purified; type: binding; conditions: FMN-bound fraction of purified protein; noncovalent
T1 construct: gene PHOT2; primers give start MIEKNFVI, end LDGSDHV
T1 sequence (P93025 387-496 S394T/S409G/C426A/I452T/F470L/M475V): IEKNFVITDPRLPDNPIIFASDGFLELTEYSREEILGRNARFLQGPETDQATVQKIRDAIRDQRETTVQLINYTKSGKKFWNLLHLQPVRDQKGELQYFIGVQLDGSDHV

[5] = target: PpFbFP, FMN-based fluorescent protein from Pseudomonas putida (Pseudomonas putida) (UniProt Q88JB0); experiment: SEC; Superdex 200 gel filtration on AKTA FPLC, calibrated with globular protein standards; 0.5 M NaCl; oligomeric state = estimated mass divided by calculated monomer mass (110 Da per amino acid); mean of duplicates
[6] = target: PpFbFP, FMN-based fluorescent protein from Pseudomonas putida (Pseudomonas putida) (UniProt Q88JB0); experiment: SEC; Superdex 200 gel filtration on AKTA FPLC, calibrated with globular protein standards; 0.15 M NaCl (methods name phosphate buffered saline); oligomeric state = estimated mass divided by calculated monomer mass (110 Da per amino acid); mean of duplicates
[7] = target: PpFbFP, FMN-based fluorescent protein from Pseudomonas putida (Pseudomonas putida) (UniProt Q88JB0); experiment: SEC; Superdex 200 gel filtration on AKTA FPLC, calibrated with globular protein standards; 1 M NaCl (20 mM Tris hydrochloride, 1 M NaCl, pH 8.0); oligomeric state = estimated mass divided by calculated monomer mass (110 Da per amino acid); mean of duplicates

## EcFbFP, FMN-based fluorescent protein derived from the N-terminal LOV domain of Bacillus subtilis YTVA (E. coli codon-optimized gene) (from UniProt O34627 20-147) (domain or fragment)
[1]
  stoichiometry N: 1.7
[2]
  stoichiometry N: 1.9
[3]
  stoichiometry N: 1.6

## Cc1cc2nc3c(=O)[nH]c(=O)nc-3n(C[C@H](O)[C@H](O)[C@H](O)COP(=O)(O)O)c2cc1C [FMN]
[4]
  Fholo: 0.39±0.01

## PpFbFP, FMN-based fluorescent protein from Pseudomonas putida (from UniProt Q88JB0 1-151) (natural protein)
[5]
  stoichiometry N: 1.7
[6]
  stoichiometry N: 1.9
[7]
  stoichiometry N: 1.5
